Kd, % competition and IC50 data for six molecules are collected here from patent US20220381793A1, “COMPOSITIONS AND METHODS FOR IDENTIFYING MHC-II BINDING PEPTIDES” (priority 2021, published 2022).

Read-outs that look alike come from different tables or passages of the source. No end group written: not given here. Ahx = NCCCCCC(=O)O

As usually defined, the Kd is the free concentration of one partner at which half of the binding sites on the other are occupied at equilibrium, for simple one-to-one binding. A higher Kd goes with weaker binding. Broadly, the IC50 is the midpoint of a concentration-inhibition curve. Lower therefore signals higher potency.

In assay [1] the target is T1, “empty” DQ6-LZ (DQA1*01:02/DQB1*06:02 ectodomains with Fos/Jun leucine zippers, non-covalent heterodimer displayed on yeast through Aga2p). Put plainly: flow. The conditions noted are these: chains peptide; modification not given.
For assay [2], the target named is T2, “empty” DR4-LZ (DRA*01:01/DRB1*04:01 ectodomains with Jun/Fos leucine zippers, non-covalent heterodimer displayed on yeast through Aga2p) (human).
Assay [3] concerns the target T1, “empty” DQ6-LZ (DQA1*01:02/DQB1*06:02 …). Put plainly: competition. The conditions noted are these: chains peptide; modification not given.
The target of assay [4] is T3, “empty” DR4-LZ (DRA*01:01/DRB1*04:01 ectodomains with Jun/Fos leucine zippers, non-covalent heterodimer displayed on yeast through Aga2p). Briefly: competition. Particulars: chains peptide; modification not given.
For assay [5], the target named is T2, “empty” DR4-LZ (DRA*01:01/DRB1*04:01 …). This is another data set of the same source.
Assay [6] deals with T3, “empty” DR4-LZ (DRA*01:01/DRB1*04:01 …). Briefly: flow. Particulars: chains peptide; modification not given.

MNLPSTKVSWAAVK-{Ahx-biotin} [HCRT1-13-Bio (…-Ahx-biotin)] registered a Kd in assay [1] of 12.5 µM.

As to NRALTGIAVEQDKNTQE (modifications not checked) [S764-780, P0DTC2 764-780], the % competition in assay [2] was < 50%.

As for QASGNHAAGILTMGR [HCRT85-99, O43612 85-99], the IC50 in assay [3] was 25.2 µM.

PKYVKQNTLKLAT [non-biotinylated HA306-318]: the IC50 in assay [4] stood at 66.8 µM.

In assay [5], HGVVFLHVTYVPAQEKN (modifications not checked) [S1058-1074, P0DTC2 1058-1074] had a % competition of 75%.

The molecule PKYVKQNTLKLAT [Bio-HA306-318 (biotin-Ahx-…)] displayed a Kd in assay [6] of 33.2 µM.
